According to US20180265843A1, “METHOD AND MEDIUM FOR NEURAL DIFFERENTIATION OF PLURIPOTENT CELLS” (INSERM 9INSTITUT NATIONAL DE LA SANTÉ ET DE LA RECHERCHE …, priority 2009, published 2018):

What was measured:
[1] = system: hES cells; experiment: Real-time qPCR of lineage marker transcripts after differentiation; format: cell-based, human; conditions: for expression of early neural markers PAX6 and SOX1: 8 days treatment in N2B27, qPCR; for neural crest cells (PAX3+/SOX10+) and keratinocytes (Cytokeratins 8 and 18), alternative fates from primitive ectoderm: 8 days treatment, qPCR and ICC
Procedure: (§1) Human ES cell cultures or IFS cultures reaching 70-80% confluence were used to perform neural induction using NFS medium. Colonies were cut in pieces and manually detached in N2B27 or NFS medium completed with the Rock-inhibitor Y27632 (10 μM, Calbiochem). Clusters were transferred for 6 h in a low attachment Petri dish in order to completely starve them from the influence of the feeders. Finally, the hES or IFS suspension was plated in the same medium at a 1:1 ratio in culture dishes pre-coated with poly-ornithin and laminin (2 μg/ml, Sigma). The day after and then every other day, the medium was changed for NFS medium without Y27632.
Total RNA was isolated using the RNeasy Mini Kit (Qiagen) according to the manufacturer's instructions. A total of 500 ng of RNA were reverse transcribed into cDNA with SuperScript III (Invitrogen) using random primers. Real-time Q-PCR was performed with SYBR Green as a probe on a LC480 Real-Time system (Roche). Quantification was performed at a threshold detection line (Ct value). The Ct of each target gene was normalized against that of the cyclophilin as a housekeeping gene. The 2-ΔΔCt method was used to determine the relative level of expression of each gene. Data were expressed as mean±SEM. Primer sequences are listed in follow.

[2] = system: hES cells; experiment: FACS analysis of culture composition after differentiation with Noggin, SB431542 or both (NFS); format: cell-based, human; conditions: for differentiation of hES cells into an alternative fate than the neural lineage: 8 days treatment in N2B27; for proportion of neural cells, in words: 8 days treatment in N2B27, FACS
Description: A—FACS analyses of the composition of the whole culture after 8 days of differentiation in N2B27 alone or completed with Noggin, SB431542 or both (NFS). B—QPCR quantification of transcript specific of ES cells (Oct4 and Nanog) and early neural precursors (PAX6 and SOX1) for each condition of differentiation.
as §1
Cells were collected using trypsin and fixed with 2% PFA for 15 min at 4° C. Permeabilization was performed using a PBS/0.1% saponin solution 10 min at RT. The same solution was then used to dilute primary antibodies as followed: mouse monoclonal OCT4 antibody linked to phycoerythrin (oct4-PE, 1:10°, BD Biosciences) and polyclonal rabbit anti-SOX2 antibody (1:500°, Chemicon). Cells were exposed to the mixture of primary antibodies 45 min at RT. An additional incubation with anti-rabbit secondary antibodies linked to AlexaFluo 488 was performed during 30 min at RT in order to detect SOX2 unconjugated antibodies. FACS analysis was performed using a Becton Dickinson FACScalibur™ flow cytometer.
We first monitored the efficiency of neural differentiation obtained only by removing from the culture medium any known instructive signals for alternative cell fates. We used N2B27 medium, a defined medium previously developed to induce neural differentiation of both mouse and human embryonic stem cells in an adherent monolayer culture system (Ying et al., 2003; Lowell et al., 2006). In order to analyzed consistently differentiation of several naïve hES cell lines, we have develop a protocol of systematic counting where cells were stained using antibodies against OCT4 and SOX2 transcription factors and then, analysed using FACS technology. Cells expressing both OCT4 and SOX2 were considered as embryonic stem cells whereas cells expressing only SOX2 were counted as neural cells. Cells totally negative or expressing only OCT4 were designated as differentiated into other type of tissues or layers. FACS analysis was performed on 4 hES cell lines (Hues 24, H9, VUB01, SA01), 8 days after platting on laminin in N2B27. Neural differentiation was obtained with all cell lines, but the efficiency of differentiation appeared highly variable depending of the cell line used, ranging from 33.84% for SA01 line to 82.33% for VUB01 line (FIG. 1-A).

[3] = 8 days of differentiation, qPCR

Molecule: NC(=O)c1ccc(-c2nc(-c3ccc4c(c3)OCO4)c(-c3ccccn3)[nH]2)cc1 [SB431542, 4-(5-Benzol[1,3]dioxol-5-yl-4-pyrlidn-2-yl-1H-imidazol-2-yl)-benzamide hydrate, reference compound]
- markers of primitive endoderm (SOX17, FOXA1) and primitive mesoderm (Brachyury, FLK1) [1, 3]: not detected
- expression of early neural markers PAX6 and SOX1 [1]: didn't increase robustly
- neural crest cells (PAX3+/SOX10+) and keratinocytes (Cytokeratins 8 and 18), alternative fates from primitive ectoderm [1]: detected
- differentiation of hES cells into an alternative fate than the neural lineage [2]: drastic differentiation of ES into an alternative fate
- proportion of neural cells, in words [2]: didn't increase robustly

B1: Noggin: natural inhibitor of the BMP pathway; recombinant noggin from R&D Systems or Preprotech (protein, UniProt Q13253 28-232, looked up)
Noggin: QHYLHIRPAPSDNLPLVDLIEHPDPIFDPKEKDLNETLLRSLLGGHYDPGFMATSPPEDRPGGGGGAAGGAEDLAELDQLLRQRPSGAMPSEIKGLEFSEGLAQGKKQRLSKKLRRKLQMWLWSQTFCPVLYAWNDLGSRFWPRYVKVGSCFSKRSCSVPEGMVCKPSKSVHLTVLRWRCQRRGGQRCGWIPIQYPIISECKCSC
- markers of primitive endoderm (SOX17, FOXA1) and primitive mesoderm (Brachyury, FLK1) [1, 3]: not detected
- transcripts of extra-embryonic tissue markers CDX2 and Eomes [1, 3]: not detected
- expression of early neural markers PAX6 and SOX1 [1]: slight increased
- neural crest cells (PAX3+/SOX10+) and keratinocytes (Cytokeratins 8 and 18), alternative fates from primitive ectoderm [1]: not detected
- differentiation of hES cells into an alternative fate than the neural lineage [2]: complete blockage
- proportion of neural cells, in words [2]: slight increased
- ES cells expressing Oct4 and NANOG remaining in the culture ([2]; after 8 days of treatment): a large number of ES cells
